# Experimental data from article PMC5095587.
# Biological target: ferredoxin isoform 2 from Arabidopsis thaliana (Arabidopsis thaliana) (UniProt P16972)
# Assay: NMR titration; 15N HSQC of labelled ferredoxin with purified FusA added at varying stoichiometry up to 1:1; buffer with 0.1% LDAO, sodium phosphate; 600 MHz
substance,measurement,value
FusA_(1043) Δ20 (FusA from P. atrosepticum SCRI1043 lacking the 20 amino-acid N-terminal signal sequence) (from UniProt Q6CZW5 21-704) (receptor),stoichiometry N,1
